Test results reported in publication PMC11417369, “DNA sequence and chromatin differentiate sequence-specific transcription factor binding in the human malaria parasite Plasmodium falciparum”.

T1: AP2-HC D1 (Plasmodium falciparum, UniProt Q8IKR9 1316-1374)
T1 sequence: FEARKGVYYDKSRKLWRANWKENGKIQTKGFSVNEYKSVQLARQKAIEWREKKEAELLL


These binders were tested against T1, AP2-HC D1 (assay: gcPBM; about 25 ug protein; PBS, 1% milk, 0.2 mg/ml BSA, salmon testes DNA, 0.03% Triton X-100). Conditions: tags: N-terminal GST (pGEX-4T-1), kept; label: surface-attached array probe.

| Binder | binding signal |
| --- | --- |
| CACACA_site9385 (dsDNA) DNA 1: AATATATGTTTAATTTCACACACAAATATACATTTT DNA 2: AAAATGTATATTTGTGTGTGAAATTAAACATATATT | 10.2 ln median PBM intensity, better of two orientations |
| CACACA_site7688 (dsDNA) DNA 1: AATATAAATAAAAACACACACAATGGTACCTATATA DNA 2: TATATAGGTACCATTGTGTGTGTTTTTATTTATATT | 10.3 ln median PBM intensity, better of two orientations |
| CACACA_site5932 (dsDNA) DNA 1: GCATTGTCCATGCGCACACACTACTAGAATAATATG DNA 2: CATATTATTCTAGTAGTGTGTGCGCATGGACAATGC | 10.2 ln median PBM intensity, better of two orientations |
| CACACA_site8859 (dsDNA) DNA 1: ACGATGTTCATCACTACACACACAAAGAAATATATA DNA 2: TATATATTTCTTTGTGTGTGTAGTGATGAACATCGT | 10.1 ln median PBM intensity, better of two orientations |
| CACACA_site8848 (dsDNA) DNA 1: ATATAAATTTTTTATGAACACACAAATACAGACACT DNA 2: AGTGTCTGTATTTGTGTGTTCATAAAAAATTTATAT | 10.3 ln median PBM intensity, better of two orientations |
| CACACA_site1501 (dsDNA) DNA 1: TAATAATAATTATATACACACATGTATATTATATTT DNA 2: AAATATAATATACATGTGTGTATATAATTATTATTA | 9.81 ln median PBM intensity, better of two orientations |
| CACACA_site762 (dsDNA) DNA 1: ATTTTTTTATTTTGTGCACACACATAAAAATATATA DNA 2: TATATATTTTTATGTGTGTGCACAAAATAAAAAAAT | 9.86 ln median PBM intensity, better of two orientations |
| CACACA_site9254 (dsDNA) DNA 1: TTAATAAATATCAATACACACACACTAATGTGAATA DNA 2: TATTCACATTAGTGTGTGTGTATTGATATTTATTAA | 10.1 ln median PBM intensity, better of two orientations |
| CACACA_site6756 (dsDNA) DNA 1: ACAAATAAAAAAATTACACACATATAAAATATAGAT DNA 2: ATCTATATTTTATATGTGTGTAATTTTTTTATTTGT | 10.1 ln median PBM intensity, better of two orientations |
| CACACA_site3184 (dsDNA) DNA 1: TACTAAAACCCATACACACACATATATATAGTACCA DNA 2: TGGTACTATATATATGTGTGTGTATGGGTTTTAGTA | 10.2 ln median PBM intensity, better of two orientations |
| CACACA_site2466 (dsDNA) DNA 1: TACCTAATATGTTATACACACATTATGAGTACATAT DNA 2: ATATGTACTCATAATGTGTGTATAACATATTAGGTA | 9.88 ln median PBM intensity, better of two orientations |
| CACACA_site1177 (dsDNA) DNA 1: TTAATTTATAAAAACACACACAGGTAAAAAGGTGCA DNA 2: TGCACCTTTTTACCTGTGTGTGTTTTTATAAATTAA | 10.3 ln median PBM intensity, better of two orientations |
| CACACA_site7028 (dsDNA) DNA 1: CATACATACATACATACACACATATATAAATATATG DNA 2: CATATATTTATATATGTGTGTATGTATGTATGTATG | 10.2 ln median PBM intensity, better of two orientations |
| CACACA_site7641 (dsDNA) DNA 1: TACATACACAGACACACACACATATAAATATAAATA DNA 2: TATTTATATTTATATGTGTGTGTGTCTGTGTATGTA | 10.4 ln median PBM intensity, better of two orientations |
| CACACA_site8083 (dsDNA) DNA 1: AAAAAAAAAAAAAAAACACACACATGCACATCATAT DNA 2: ATATGATGTGCATGTGTGTGTTTTTTTTTTTTTTTT | 10.4 ln median PBM intensity, better of two orientations |
| CACACA_site5095 (dsDNA) DNA 1: ACATCATTTTTATGTACACACACATATACGTTGAAT DNA 2: ATTCAACGTATATGTGTGTGTACATAAAAATGATGT | 10.2 ln median PBM intensity, better of two orientations |
| CACACA_site8 (dsDNA) DNA 1: TTTATAATTTATATCACACACATATATATATAGTAA DNA 2: TTACTATATATATATGTGTGTGATATAAATTATAAA | 9.83 ln median PBM intensity, better of two orientations |
| CACACA_site8531 (dsDNA) DNA 1: ATTTATAATTTTTGAGCACACACAAGCATATATATA DNA 2: TATATATATGCTTGTGTGTGCTCAAAAATTATAAAT | 9.85 ln median PBM intensity, better of two orientations |
| CACACA_site65 (dsDNA) DNA 1: CATGTAATATTAAACACACACTCATATAACACAATA DNA 2: TATTGTGTTATATGAGTGTGTGTTTAATATTACATG | 10.2 ln median PBM intensity, better of two orientations |
| CACACA_site1421 (dsDNA) DNA 1: AAAAGTAACAAAGCTACACACATTTAAATAAACATA DNA 2: TATGTTTATTTAAATGTGTGTAGCTTTGTTACTTTT | 9.84 ln median PBM intensity, better of two orientations |
| CACACA_site1704 (dsDNA) DNA 1: ACCTCATAATATTTAACACACAAAATTATATGTATG DNA 2: CATACATATAATTTTGTGTGTTAAATATTATGAGGT | 9.87 ln median PBM intensity, better of two orientations |
| CACACA_site1745 (dsDNA) DNA 1: CACATACAGACATACACACATACACATATACGCATA DNA 2: TATGCGTATATGTGTATGTGTGTATGTCTGTATGTG | 10.2 ln median PBM intensity, better of two orientations |

| Binder | binding signal |
| --- | --- |
| CACACA_site9374 (dsDNA) DNA 1: TATAGAATAATCTATAAACACACAAACACAACAAAA DNA 2: TTTTGTTGTGTTTGTGTGTTTATAGATTATTCTATA | 10.1 ln median PBM intensity, better of two orientations |
| CACACA_site4316 (dsDNA) DNA 1: TGAATAAATCAAAGCACACATACACAGACATATATA DNA 2: TATATATGTCTGTGTATGTGTGCTTTGATTTATTCA | 10.4 ln median PBM intensity, better of two orientations |
| CACACA_site2250 (dsDNA) DNA 1: GAAAGAATAAAATTTACACACATATATATATACATA DNA 2: TATGTATATATATATGTGTGTAAATTTTATTCTTTC | 9.82 ln median PBM intensity, better of two orientations |
| CACACA_site8569 (dsDNA) DNA 1: CTTTAATATTTTATTTCACACACATAAATGCCCCAA DNA 2: TTGGGGCATTTATGTGTGTGAAATAAAATATTAAAG | 9.84 ln median PBM intensity, better of two orientations |
| CACACA_site9055 (dsDNA) DNA 1: ATATATATATATATTGTACACACATTTATGCATATA DNA 2: TATATGCATAAATGTGTGTACAATATATATATATAT | 10.3 ln median PBM intensity, better of two orientations |
| CACACA_site6959 (dsDNA) DNA 1: GTTTCCTTAATATTCACACACATATCTATAATATAT DNA 2: ATATATTATAGATATGTGTGTGAATATTAAGGAAAC | 10.2 ln median PBM intensity, better of two orientations |
| CACACA_site6324 (dsDNA) DNA 1: CATAAATCAGCCATAACACACATACCTATATACATA DNA 2: TATGTATATAGGTATGTGTGTTATGGCTGATTTATG | 10.3 ln median PBM intensity, better of two orientations |
| CACACA_site8543 (dsDNA) DNA 1: ATTAATATATAACGTGCACACACACCGTTACGTATG DNA 2: CATACGTAACGGTGTGTGTGCACGTTATATATTAAT | 10.3 ln median PBM intensity, better of two orientations |
| CACACA_site7791 (dsDNA) DNA 1: AAAATTAACCGTAACACACACACATATAAATATGTA DNA 2: TACATATTTATATGTGTGTGTGTTACGGTTAATTTT | 10.4 ln median PBM intensity, better of two orientations |
| CACACA_site269 (dsDNA) DNA 1: AAATAATTCAAAAAAACACACAAATTACAAAATAAA DNA 2: TTTATTTTGTAATTTGTGTGTTTTTTTGAATTATTT | 10.2 ln median PBM intensity, better of two orientations |
| CACACA_site3383 (dsDNA) DNA 1: ATATTAAACAAACACACACACATATATATATATATA DNA 2: TATATATATATATATGTGTGTGTGTTTGTTTAATAT | 10.2 ln median PBM intensity, better of two orientations |
| CACACA_site7599 (dsDNA) DNA 1: AGCATTTTAAGTTATACACACATTTTGAATCTATAT DNA 2: ATATAGATTCAAAATGTGTGTATAACTTAAAATGCT | 9.87 ln median PBM intensity, better of two orientations |
| CACACA_site7630 (dsDNA) DNA 1: ATTATACACGCGCGCACACACAACAAAAAAAAAAAA DNA 2: TTTTTTTTTTTTGTTGTGTGTGCGCGCGTGTATAAT | 10.3 ln median PBM intensity, better of two orientations |
| CACACA_site6202 (dsDNA) DNA 1: CTCATCCTTACATACACACACATATATTTATTTATA DNA 2: TATAAATAAATATATGTGTGTGTATGTAAGGATGAG | 10.2 ln median PBM intensity, better of two orientations |
| CACACA_site8596 (dsDNA) DNA 1: AATGTGTATATATATACACACACATATATATATTTT DNA 2: AAAATATATATATGTGTGTGTATATATATACACATT | 10.1 ln median PBM intensity, better of two orientations |
| CACACA_site1542 (dsDNA) DNA 1: AATGTACAAATACGTACACACATATATATATATATA DNA 2: TATATATATATATATGTGTGTACGTATTTGTACATT | 10.2 ln median PBM intensity, better of two orientations |
| CACACA_site8866 (dsDNA) DNA 1: CCGCCATTGTACCATCCACACACATATATATATGTA DNA 2: TACATATATATATGTGTGTGGATGGTACAATGGCGG | 10.3 ln median PBM intensity, better of two orientations |
| CACACA_site4209 (dsDNA) DNA 1: TATATATATGGACACACACACACCAAAGCGTAGCGC DNA 2: GCGCTACGCTTTGGTGTGTGTGTGTCCATATATATA | 10.3 ln median PBM intensity, better of two orientations |
| CACACA_site1016 (dsDNA) DNA 1: AAATAATGGTTAGCTACACACAAAGCATTTTTTGAA DNA 2: TTCAAAAAATGCTTTGTGTGTAGCTAACCATTATTT | 9.81 ln median PBM intensity, better of two orientations |
| CACACA_site4030 (dsDNA) DNA 1: AAGGAAATATAATATACACACATAAGTGTACTTATA DNA 2: TATAAGTACACTTATGTGTGTATATTATATTTCCTT | 9.82 ln median PBM intensity, better of two orientations |
| CACACA_site806 (dsDNA) DNA 1: ATTTAAATAAGATATACACACAAGTAGAAGACTATG DNA 2: CATAGTCTTCTACTTGTGTGTATATCTTATTTAAAT | 9.85 ln median PBM intensity, better of two orientations |
| CACACA_site1431 (dsDNA) DNA 1: AAAAAAAAAAAAAATACACACAAATAATAAAAATAA DNA 2: TTATTTTTATTATTTGTGTGTATTTTTTTTTTTTTT | 10.1 ln median PBM intensity, better of two orientations |
